In assay [1] the target is T1, FZD7 receptor expressed on cells (full-length) (UniProt O75084 33-574, limits assumed).
T1 construct: whole, on cells; MDA MB 231 cells may carry other Frizzled receptors too; also called full-length FZD7 receptor; endogenous receptor on MDA MB 231 cells
In words: flow cytometry, 200 nM Fab, FZD7 over-expression line (MDA MB 231). The procedure:
(§1) FIG. 3 is a table depicting the binding of the purified Fabs to cells expressing FZD7 (flow cytometry). Small scale Fabs were assayed for binding to full-length FZD7 receptor to an over-expression line in MDA MB 231 cells. In parallel, Fabs were assayed for binding to endogenous receptor expressed on the MDA MB 231 cells. Cells were harvested using an EDTA solution, blocked in 2% FBS/PBS (stain buffer), and stained with 200 nM Fab for 30 min on ice. Cells were washed two times with stain buffer and incubated with anti-F(ab′)₂-APC secondary antibody (Jackson Immuno) at 1:1000 for 15 minutes on ice. All antibodies were diluted in stain buffer. Cells were washed three times with stain buffer and then fixed with 1% paraformaldehye for analysis by flow cytometry. […] The percent of the cell population within the positive gates is indicated.
(A flow cytometer gives signals particle by particle.)

Assay [2] has as its target T2, recombinant Frizzled receptor 7 (FZD7) cysteine-rich domain (CRD) fused to the Fc region of human IgG (human, UniProt O75084 33-185). The assay can be described thus: ELISA, 10ug/ml (200nM) Fab. The protocol: (§2) FIG. 2B is a table depicting the binding of purified Fabs to purified FZD7-Fc measured by ELISA. Fabs purified from 25 ml bacterial cultures were assayed for binding to FZD7-Fc fusion protein (R&D systems) and Fc protein. ELISA plates (384 well) were coated with 2 ug/ml of protein in PBS overnight at four degrees. Wells were blocked with 0.5% BSA/PBS for 1 hour at room temperature, washed three times with 0.05% Tween20/PBS (wash buffer), and then primary dilutions of Fabs in 0.5% BSA/0.05% Tween20/PBS (dilution buffer) were added at indicated concentrations. Fabs were incubated for 1 hour at room temperature, wells were washed six times, and anti-FLAG-HRP (Sigma) was added at 1:5000 in dilution buffer. Secondary antibody was incubated for 45 minutes at room temperature, and wells were washed six times and developed with TMB substrate with an acid stop. The absorbance at 450 nm was read. n.t.=not tested.

Assay [3] addresses T3, Fc control protein.
T3 construct: also called Fc protein; control Fc protein
In words: ELISA, 10ug/ml (200nM) Fab. The protocol:
as §2
For orientation: In an ELISA, binding on a coated surface is turned into a signal by an enzyme label.

For assay [4], the target named is T1, FZD7 receptor expressed on cells …. In words: flow cytometry, 200 nM Fab, MDA MB 231. The procedure:
as §1

Assay [5] has as its target T2, recombinant Frizzled receptor 7 (FZD7) …. The assay can be described thus: ELISA, 1ug/ml (20nM) Fab. The procedure: as §2
The target of assay [6] is T3, Fc control protein. In words: ELISA, 1ug/ml (20nM) Fab. The protocol: as §2

The source of these data is patent US20160194394A1 (GOVERNING COUNCIL OF THE UNIVERSITY OF TORONTO, published 2016).

Residue numbers refer to the chain shown, from its start.

B1: D6 (Fab)
light: DIQMTQSPSSLSASVGDRVTITCRASQSVSSAVAWYQQKPGKAPKLLIYSASSLYSGVPSRFSGSRSGTDFTLTISSLQPEDFATYYCQQFYYSLITFGQGTKVEIKRTVAAPSVFIFPPSDSQLKSGTASVVCLLNNFYPREAKVQWKVDNALQSGNSQESVTEQDSKDSTYSLSSTLTLSKADYEKHKVYACEVTHQGLSSPVTKSFNRGECGGS
heavy: EVQLVESGGGLVQPGGSLRLSCAASGFNISYSSMHWVRQAPGKGLEWVASIYSSYSYTSYADSVKGRFTISADTSKNTAYLQMNSLRAEDTAVYYCARSYGPWAPGWAAYWGGYGMDYWGQGTLVTVSSASTKGPSVFPLAPSSKSTSGGTAALGCLVKDYFPEPVTVSWNSGALTSGVHTFPAVLQSSGLYSLSSVVTVPSSSLGTQTYICNVNHKPSNTKVDKKVEPKSC
notes: selection round 2; also called Fzd7-R2-D6
As to B1, the “% population within the positive gate” value in assay [1] turned out to be 84.3%; in assay [4], 35.3%. Further, the “OD 450” value is 3.09 in assay [2], 0.12 in the assay with Fc control protein [3], 2.98 in assay [5] and 0.06 with Fc control protein [6].

B2: B10 (Fab)
light: B1 light with F91G, Y92S, Y93V, S94W, I96F
heavy: EVQLVESGGGLVQPGGSLRLSCAASGFNISSSSMHWVRQAPGKGLEWVASISSSSSYTYYADSVKGRFTISADTSKNTAYLQMNSLRAEDTAVYYCARYGSHWSPSYSGWYYYSYALDYWGQGTLVTVSSASTKGPSVFPLAPSSKSTSGGTAALGCLVKDYFPEPVTVSWNSGALTSGVHTFPAVLQSSGLYSLSSVVTVPSSSLGTQTYICNVNHKPSNTKVDKKVEPKSC
notes: selection round 2; not the round 3 clone B10 (f30); also called Fzd7-R2-B10
For B2, the “% population within the positive gate” value in assay [1] worked out at 88.4%; in assay [4], 35%. Moreover, the “OD 450” value in assay [2] turned out to be 2.99; with Fc control protein [3], 0.06; in assay [5] it was 2.82; with Fc control protein [6], 0.06.

B3: G4 (Fab)
light: B1 light with F91A, Y93A, S94Y
heavy: EVQLVESGGGLVQPGGSLRLSCAASGFNISYSSMHWVRQAPGKGLEWVASISSSYGYTYYADSVKGRFTISADTSKNTAYLQMNSLRAEDTAVYYCARSGGHFYYWYVAAAMDYWGQGTLVTVSSASTKGPSVFPLAPSSKSTSGGTAALGCLVKDYFPEPVTVSWNSGALTSGVHTFPAVLQSSGLYSLSSVVTVPSSSLGTQTYICNVNHKPSNTKVDKKVEPKSC
notes: selection round 2; same four CDRs as Fzd7-R2-B2 (f22); also called Fzd7-R2-G4
On to B3, for which the “% population within the positive gate” value is 85.4% in assay [1] and 5.1% in assay [4]. The “OD 450” value in assay [2] came out at 3.17; in the assay with Fc control protein [3], 0.07; in assay [5], 3.15; with Fc control protein [6], 0.05.

B4: E5 (Fab)
light: B1 light with F91A, Y92S, Y93W, S94Y, L95P
heavy: EVQLVESGGGLVQPGGSLRLSCAASGFNIYSSSMHWVRQAPGKGLEWVASIYSSYGYTSYADSVKGRFTISADTSKNTAYLQMNSLRAEDTAVYYCARPGYWGYYWGAYGMDYWGQGTLVTVSSASTKGPSVFPLAPSSKSTSGGTAALGCLVKDYFPEPVTVSWNSGALTSGVHTFPAVLQSSGLYSLSSVVTVPSSSLGTQTYICNVNHKPSNTKVDKKVEPKSC
notes: selection round 2; also called Fzd7-R2-E5
Turning to B4, the “% population within the positive gate” value in assay [1] was determined as 86.2%; in assay [4] it was 6.3%. Besides, the “OD 450” value in assay [2] amounted to 3.17; with Fc control protein [3] it was 0.06; in assay [5], 3.17; in the assay with Fc control protein [6], 0.07.

B5: C10 (Fab)
light: DIQMTQSPSSLSASVGDRVTITCRASQSVSSAVAWYQQKPGKAPKLLIYSASSLYSGVPSRFSGSRSGTDFTLTISSLQPEDFATYYCQQSAWWASLFTFGQGTKVEIKRTVAAPSVFIFPPSDSQLKSGTASVVCLLNNFYPREAKVQWKVDNALQSGNSQESVTEQDSKDSTYSLSSTLTLSKADYEKHKVYACEVTHQGLSSPVTKSFNRGECGGS
heavy: EVQLVESGGGLVQPGGSLRLSCAASGFNISSYSIHWVRQAPGKGLEWVASIYPYSSYTYYADSVKGRFTISADTSKNTAYLQMNSLRAEDTAVYYCARYSGFAMDYWGQGTLVTVSSASTKGPSVFPLAPSSKSTSGGTAALGCLVKDYFPEPVTVSWNSGALTSGVHTFPAVLQSSGLYSLSSVVTVPSSSLGTQTYICNVNHKPSNTKVDKKVEPKSC
notes: selection round 2; also called Fzd7-R2-C10
Regarding B5, the “% population within the positive gate” value in assay [1] amounted to 50.5%; in assay [4] it was 0.9%. Besides, the “OD 450” value stood at 2.05 in assay [2], 0.06 with Fc control protein [3], 0.37 in assay [5] and 0.07 with Fc control protein [6].

B6: F12 (Fab)
light: DIQMTQSPSSLSASVGDRVTITCRASQSVSSAVAWYQQKPGKAPKLLIYSASSLYSGVPSRFSGSRSGTDFTLTISSLQPEDFATYYCQQAYAPFTFGQGTKVEIKRTVAAPSVFIFPPSDSQLKSGTASVVCLLNNFYPREAKVQWKVDNALQSGNSQESVTEQDSKDSTYSLSSTLTLSKADYEKHKVYACEVTHQGLSSPVTKSFNRGECGGS
heavy: EVQLVESGGGLVQPGGSLRLSCAASGFNISYSYMHWVRQAPGKGLEWVASIYSSYSYTSYADSVKGRFTISADTSKNTAYLQMNSLRAEDTAVYYCARSSAWFGHAGFGGAMDYWGQGTLVTVSSASTKGPSVFPLAPSSKSTSGGTAALGCLVKDYFPEPVTVSWNSGALTSGVHTFPAVLQSSGLYSLSSVVTVPSSSLGTQTYICNVNHKPSNTKVDKKVEPKSC
notes: selection round 2; also called Fzd7-R2-F12
Regarding B6, the “% population within the positive gate” value in assay [1] was 59.9%; in assay [4] it was 1.4%. Besides, the “OD 450” value was found to be 3.11 in assay [2], 0.06 with Fc control protein [3], 1.05 in assay [5] and 0.08 in the assay with Fc control protein [6].

B7: E9 (Fab)
light: DIQMTQSPSSLSASVGDRVTITCRASQSVSSAVAWYQQKPGKAPKLLIYSASSLYSGVPSRFSGSRSGTDFTLTISSLQPEDFATYYCQQSYVGGPFTFGQGTKVEIKRTVAAPSVFIFPPSDSQLKSGTASVVCLLNNFYPREAKVQWKVDNALQSGNSQESVTEQDSKDSTYSLSSTLTLSKADYEKHKVYACEVTHQGLSSPVTKSFNRGECGGS
heavy: EVQLVESGGGLVQPGGSLRLSCAASGFNISYYSMHWVRQAPGKGLEWVASISSSYSSTYYADSVKGRFTISADTSKNTAYLQMNSLRAEDTAVYYCARGYWYVYVGWGAYYGPVGMDYWGQGTLVTVSSASTKGPSVFPLAPSSKSTSGGTAALGCLVKDYFPEPVTVSWNSGALTSGVHTFPAVLQSSGLYSLSSVVTVPSSSLGTQTYICNVNHKPSNTKVDKKVEPKSC
notes: selection round 2; not the round 3 clone E9 (f29); also called Fzd7-R2-E9
Take B7: the “% population within the positive gate” value worked out at 90.7% in assay [1] and 99.4% in assay [4]. The “OD 450” value in assay [2] was 3.22; in the assay with Fc control protein [3] it was 0.07; in assay [5], 3.15; with Fc control protein [6], 0.05.

B8: D7 (Fab)
light: B7 light with G94Y, G95Y, P96L, F97I
heavy: EVQLVESGGGLVQPGGSLRLSCAASGFNISYYSMHWVRQAPGKGLEWVAYIYPYSSYTYYADSVKGRFTISADTSKNTAYLQMNSLRAEDTAVYYCARYHGFYGMDYWGQGTLVTVSSASTKGPSVFPLAPSSKSTSGGTAALGCLVKDYFPEPVTVSWNSGALTSGVHTFPAVLQSSGLYSLSSVVTVPSSSLGTQTYICNVNHKPSNTKVDKKVEPKSC
notes: selection round 2; also called Fzd7-R2-D7
B8: the “% population within the positive gate” value in assay [1] was found to be 75.7%; in assay [4], 1.7%. The “OD 450” value worked out at 3.18 in assay [2], 0.07 with Fc control protein [3], 3.22 in assay [5] and 0.07 in the assay with Fc control protein [6].
